Reference: the supplement of paper PMC9112550, “Optimization of the antimicrobial peptide Bac7 by deep mutational scanning” (BMC Biology, 2022)

What follows are sequences tested on Escherichia coli TOP10 (assay: shrunken log2 fold change of peptide-encoding DNA abundance (4.5 h post-induction vs induction); higher = less antimicrobial activity (less host growth inhibition)). Details: time post-induction: 4.5 h; library: site-saturation at positions 5, 18, 19, 20.
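Note: peptides expressed intracellularly from a pBAD plasmid library in pooled LB shake-flask culture, induced with 0.3% L-arabinose, DNA abundance read by NGS, three biological replicates, DESeq2 with apeglm shrinkage.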

| Sequence | shrunken log2 fold change |
| --- | --- |
| RRIRGRPPRLPRPRPRPVAIPRP | 0.949 |
| RRIRQRPPRLPRPRPRPYAPPRP | -0.505 |
| RRIRIRPPRLPRPRPRPWHDPRP | -0.676 |
| RRIRGRPPRLPRPRPRPQSAPRP | 0.629 |
| RRIRLRPPRLPRPRPRPEEPPRP | 0.0426 |
| RRIRWRPPRLPRPRPRPFTFPRP | -0.326 |
| RRIRKRPPRLPRPRPRPESYPRP | 0.403 |
| RRIRERPPRLPRPRPRPIRAPRP | 0.0262 |
| RRIRWRPPRLPRPRPRPRQHPRP | 0.251 |
| RRIRMRPPRLPRPRPRPACEPRP | 0.903 |
| RRIRYRPPRLPRPRPRPVHMPRP | -0.0179 |
| RRIRFRPPRLPRPRPRPNIFPRP | -0.229 |
| RRIRCRPPRLPRPRPRPLYLPRP | -0.493 |
| RRIRERPPRLPRPRPRPCANPRP | -0.158 |
| RRIRTRPPRLPRPRPRPWINPRP | 0.0189 |
| RRIRRRPPRLPRPRPRPAKKPRP | 1.04 |
| RRIRWRPPRLPRPRPRPEGRPRP | 0.65 |
| RRIRSRPPRLPRPRPRPGKHPRP | 0.0205 |
| RRIRKRPPRLPRPRPRPLVKPRP | 0.195 |
| RRIRVRPPRLPRPRPRPRVIPRP | -0.0308 |
| RRIRVRPPRLPRPRPRPCVYPRP | -0.136 |
| RRIRRRPPRLPRPRPRPRNGPRP | 0.144 |
| RRIRTRPPRLPRPRPRPQVFPRP | -0.0243 |
| RRIRRRPPRLPRPRPRPPLPPRP | 1.06 |
| RRIRKRPPRLPRPRPRPLWDPRP | 0.609 |

| Sequence | shrunken log2 fold change |
| --- | --- |
| RRIRVRPPRLPRPRPRPGSMPRP | -0.00131 |
| RRIRSRPPRLPRPRPRPGDDPRP | 0.0869 |
| RRIRHRPPRLPRPRPRPTPDPRP | 0.134 |
| RRIRYRPPRLPRPRPRPRAVPRP | 0.0585 |
| RRIRERPPRLPRPRPRPDTDPRP | 0.0402 |
| RRIRRRPPRLPRPRPRPWSEPRP | -0.142 |
| RRIRNRPPRLPRPRPRPEHRPRP | -0.226 |
| RRIRSRPPRLPRPRPRPYWDPRP | -0.321 |
| RRIRMRPPRLPRPRPRPSIQPRP | 0.0104 |
| RRIRYRPPRLPRPRPRPEGVPRP | -0.0041 |
| RRIRQRPPRLPRPRPRPPWHPRP | 0.187 |
| RRIRPRPPRLPRPRPRPYQAPRP | -0.0753 |
| RRIRKRPPRLPRPRPRPCFYPRP | -0.115 |
| RRIRARPPRLPRPRPRPHHGPRP | -0.122 |
| RRIRLRPPRLPRPRPRPDDSPRP | 0.0276 |
| RRIRFRPPRLPRPRPRPGCAPRP | 1.03 |
| RRIRQRPPRLPRPRPRPCQKPRP | 0.0369 |
| RRIRMRPPRLPRPRPRPELIPRP | 3.16 |
| RRIRCRPPRLPRPRPRPNFVPRP | -0.123 |
| RRIRQRPPRLPRPRPRPNIKPRP | -0.558 |
| RRIRTRPPRLPRPRPRPCCPPRP | -0.305 |
| RRIRKRPPRLPRPRPRPKQHPRP | 0.657 |
| RRIRPRPPRLPRPRPRPIQLPRP | -0.0767 |
| RRIRGRPPRLPRPRPRPCDWPRP | 0.519 |
| RRIRHRPPRLPRPRPRPLLSPRP | -0.0464 |

| Sequence | shrunken log2 fold change |
| --- | --- |
| RRIRVRPPRLPRPRPRPHKIPRP | -0.53 |
| RRIRVRPPRLPRPRPRPQDVPRP | -0.033 |
| RRIRARPPRLPRPRPRPHEVPRP | 0.101 |
| RRIRRRPPRLPRPRPRPPWRPRP | 0.757 |
| RRIRQRPPRLPRPRPRPRDPPRP | 0.604 |
| RRIRHRPPRLPRPRPRPQSKPRP | -0.342 |
| RRIRARPPRLPRPRPRPVMRPRP | 0.292 |
| RRIRPRPPRLPRPRPRPMHQPRP | 0.059 |
| RRIRDRPPRLPRPRPRPTHDPRP | 0.666 |
| RRIRNRPPRLPRPRPRPGDAPRP | 0.102 |
| RRIRLRPPRLPRPRPRPTTEPRP | -0.00894 |
| RRIRWRPPRLPRPRPRPFLFPRP | 0.095 |
| RRIRQRPPRLPRPRPRPVRYPRP | 0.0926 |
| RRIRTRPPRLPRPRPRPFILPRP | -0.276 |
| RRIRWRPPRLPRPRPRPGSIPRP | -0.0682 |
| RRIRVRPPRLPRPRPRPQYRPRP | -0.134 |
| RRIRDRPPRLPRPRPRPWWDPRP | 0.083 |
| RRIRRRPPRLPRPRPRPPSGPRP | 0.682 |
| RRIRPRPPRLPRPRPRPWDKPRP | -0.629 |
| RRIRIRPPRLPRPRPRPKFVPRP | -0.0693 |
| RRIRWRPPRLPRPRPRPKHQPRP | 0.195 |
| RRIRVRPPRLPRPRPRPNREPRP | -0.0873 |
| RRIRERPPRLPRPRPRPNWHPRP | -0.185 |
| RRIRWRPPRLPRPRPRPSAGPRP | 0.231 |
| RRIRSRPPRLPRPRPRPLVVPRP | 0.268 |

| Sequence | shrunken log2 fold change |
| --- | --- |
| RRIRHRPPRLPRPRPRPFCCPRP | -0.0718 |
| RRIRSRPPRLPRPRPRPHWGPRP | -0.107 |
| RRIRIRPPRLPRPRPRPRKTPRP | 0.13 |
| RRIRTRPPRLPRPRPRPTQKPRP | -0.0787 |
| RRIRTRPPRLPRPRPRPKMYPRP | -0.52 |
| RRIRVRPPRLPRPRPRPNSKPRP | -0.506 |
| RRIRQRPPRLPRPRPRPGQPPRP | 0.385 |
| RRIRLRPPRLPRPRPRPRLAPRP | 0.624 |
| RRIRWRPPRLPRPRPRPRVGPRP | 0.563 |
| RRIRDRPPRLPRPRPRPCKAPRP | -0.0139 |
| RRIRVRPPRLPRPRPRPCTCPRP | -0.00748 |
| RRIRNRPPRLPRPRPRPDPMPRP | -0.177 |
| RRIRTRPPRLPRPRPRPSHTPRP | -0.0162 |
| RRIRHRPPRLPRPRPRPECSPRP | -0.0101 |
| RRIRYRPPRLPRPRPRPIQSPRP | -0.00206 |
| RRIRRRPPRLPRPRPRPFMAPRP | 0.113 |
| RRIRQRPPRLPRPRPRPDREPRP | 0.00931 |
| RRIRMRPPRLPRPRPRPISYPRP | -0.0167 |
| RRIRCRPPRLPRPRPRPFNEPRP | -0.799 |
| RRIRCRPPRLPRPRPRPKEDPRP | 0.166 |
| RRIRMRPPRLPRPRPRPFMCPRP | -0.171 |
| RRIRMRPPRLPRPRPRPYGYPRP | 0.0362 |
| RRIRERPPRLPRPRPRPMNAPRP | -0.259 |
| RRIRLRPPRLPRPRPRPEKPPRP | 0.148 |
| RRIRFRPPRLPRPRPRPHKSPRP | -0.396 |

| Sequence | shrunken log2 fold change |
| --- | --- |
| RRIRGRPPRLPRPRPRPCQAPRP | -0.0272 |
| RRIRIRPPRLPRPRPRPPMNPRP | -0.368 |
| RRIRMRPPRLPRPRPRPQWYPRP | -0.161 |
| RRIRRRPPRLPRPRPRPKTNPRP | 0.221 |
| RRIRCRPPRLPRPRPRPGEMPRP | 0.438 |
| RRIRDRPPRLPRPRPRPIGSPRP | -0.693 |
| RRIRKRPPRLPRPRPRPVIYPRP | -0.0353 |
| RRIRVRPPRLPRPRPRPCNKPRP | -0.311 |
| RRIRKRPPRLPRPRPRPPLMPRP | 0.396 |
| RRIRIRPPRLPRPRPRPPPAPRP | 0.543 |
| RRIRERPPRLPRPRPRPQMDPRP | 0.178 |
| RRIRMRPPRLPRPRPRPYWWPRP | 0.0238 |
| RRIRQRPPRLPRPRPRPTWHPRP | 0.0897 |
| RRIRIRPPRLPRPRPRPGCEPRP | -0.0688 |
| RRIRARPPRLPRPRPRPFAFPRP | 0.552 |
| RRIRERPPRLPRPRPRPKKLPRP | -0.083 |
| RRIRWRPPRLPRPRPRPHHAPRP | -0.0735 |
| RRIRSRPPRLPRPRPRPHIIPRP | -0.443 |
| RRIRYRPPRLPRPRPRPYVPPRP | -0.77 |
| RRIRRRPPRLPRPRPRPIDIPRP | -0.118 |
| RRIRTRPPRLPRPRPRPANYPRP | -0.145 |
| RRIRMRPPRLPRPRPRPHWLPRP | -0.183 |
| RRIRCRPPRLPRPRPRPAIVPRP | -0.37 |
| RRIRNRPPRLPRPRPRPANFPRP | -0.193 |
| RRIRRRPPRLPRPRPRPESDPRP | 0.6 |

| Sequence | shrunken log2 fold change |
| --- | --- |
| RRIRMRPPRLPRPRPRPGGRPRP | 1.04 |
| RRIRARPPRLPRPRPRPVIKPRP | -0.136 |
| RRIRRRPPRLPRPRPRPKFKPRP | -0.046 |
| RRIRTRPPRLPRPRPRPRSDPRP | 0.0841 |
| RRIRYRPPRLPRPRPRPHDKPRP | -0.661 |
| RRIRNRPPRLPRPRPRPRHQPRP | -0.038 |
| RRIRFRPPRLPRPRPRPHDQPRP | 0.0225 |
| RRIRARPPRLPRPRPRPSFWPRP | 0.354 |
| RRIRCRPPRLPRPRPRPFMPPRP | -0.402 |
| RRIRGRPPRLPRPRPRPIRCPRP | 0.261 |
| RRIRSRPPRLPRPRPRPIKEPRP | -0.0466 |
| RRIRTRPPRLPRPRPRPCRVPRP | -0.346 |
| RRIRARPPRLPRPRPRPGQVPRP | 0.402 |
| RRIRQRPPRLPRPRPRPMWSPRP | 0.0215 |
| RRIRERPPRLPRPRPRPMLYPRP | -0.222 |
| RRIRDRPPRLPRPRPRPWINPRP | 0.0363 |
| RRIRDRPPRLPRPRPRPYIHPRP | -0.117 |
| RRIRYRPPRLPRPRPRPNHLPRP | -1.32 |
| RRIRRRPPRLPRPRPRPFPHPRP | 0.292 |
| RRIRGRPPRLPRPRPRPYTTPRP | -0.083 |
| RRIRTRPPRLPRPRPRPIVRPRP | -0.00141 |
| RRIRSRPPRLPRPRPRPFRQPRP | 3.58 |
| RRIRGRPPRLPRPRPRPDAFPRP | 1.87 |
| RRIRTRPPRLPRPRPRPMQNPRP | -0.0815 |
| RRIRKRPPRLPRPRPRPYWTPRP | -0.26 |
